A protein production outcome set (Wang et al. 2014)

Assay: label from the status in PepcDB records
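Note: failed if final PepcDB status was selected cloned or expressed and not failed if soluble or beyond.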

Sequence | protein production
STRPVGGTEYSWCRAIDGGTGIAVIALLLSRTPKLQNLQNTLDKLQIYHPTLRSNIRFDASANSFSFVVTSAADSHVEIHPFDSVSTAQIIRDSDDPCADPHRIILEHEMNKNTWINPHRWIKSESRVFIVSLYDLTDDGEQRILTFRLNTAAVDRTAAVTLLREFMKETAADGFGNGPVVAATETAVGLGKAIEELIPSGKGDKPFWARGIDVLGYSLNAFRFSNLNFVDAENSNRRSQLVRLKLDRDQTLKLVAGCKARGLKLWAALASSALIAAYSSKNLPPYQGEKYAVVTLSDCRSILEPPLTSNDFGFYHAGILHTHDLTGEEKLWDLAKRCYDSFTSSKNSNKQFTDMSDLNFLMCKAIENPNLTPSSSLRTAFISIFEDPVIDESPEPELASLGVQDYIGCASIHGVGPSVAVFDALRDGKLDCAFVYPSPLHSREQMDGLIQHMKTILLEGSASSF | not failed
STSPTATKYDVFLSFRGVDTRRNFISFLYKEFVRRKIRTFKDDKELENGRRISPELKRAIEESKFAVVVVSVNYAASPWCLDELVKIMDFENKGSITVMPIFYGVDPCHLRRQIGDVAEQFKKHEAREEDHEKVASWRRALTSLASISGDCSSKCEDEAKLVDEIADKISKNLMTVTTISNGKNLVGIDTHMKALNKKLDLNSNKSLRVVGIWARGYNGRSALAKYVYQDICHHFDSHCFLGSVKRISQGRHLSHLHEEFLIRIQGSKHNLKDQKVLLVADDVYKLEQLDALAEDFNGFGPGSVVIITTQDKHLFVSAGIKLVYEVELLKFQKVCELFRQFAFKKRDISAAVKLVYYRATNWLGCLSGRSG | failed
STVKRKPVFVKVEQLKPGTTGHTLTVKVIEANIVVPVTRKTRPASSLSRPSQPSRIVECLIGDETGCILFTARNDQVDLMKPGATVILRNSRIDMFKGTMRLGVDKWGRIEATGAASFTVKEDNNLSLVEYE | not failed
SVDKNRTLHELSSKNFSRTPNGLIFTNDLKTVYSIFLICLDLKEKKHSSDTKSFLLTAFTKHFHFTFTYQEAIKAMGQLELKVDMNTTCINVSYNIKPSLARHLLTLFMSSKLLHTPQDRTRGEPKEKVLFQPTPKGVAVLQKYVRDIGLKTMPDILLSSFNSMKLFTFERSSVTDSIIHSDYLIHILFIKMMGAKPNVWSPTNADDPLPCLSSLLEYTNNDDTFTFEKSKPEQGWQAQIGNIDINDLERVSPLAHRFFTNPDSESHTQYYVSNAGIRLFENKTFGTSKKIVIKYTFTTKAIWQWIMDCTDIMHVKEAVSLAALFLKTGLIVPVLLQPSRTDKKKFQISRSSFFTLSKRGWDLVSWTGCKSNNIRAPNGSTIDLDFTLRGHMTVRDEKKTLDDSEGFSQDMLISSSNLNKLDYVLTDPGMRYLFRRHLEKELCVENLDVFIEIKRFLKKMTILKKLIDSKHCDKKSNTSTSKNNIVKTIDSALMKQANECLEMAYHIYSSYIMIGSPYQLNIHHNLRQNISDIMLHPHSPLSEHFPTNLYDPSPASAESAASSISSTEADTLGEPPEVSLKPSKNLSNENCSFKKQGFKHQLKEYKPAPLTLAETHSPNASVENSHTIVRYGMDNTQNDTKSVESFPATLKVLRKLYPLFEIVSNEMYRLMNNDSFQKFTQSDVYKDASALIEIQEKC | failed
SVMAEGTAVLRRNRPGTKAQDFYNWPDESFDEMDSTLAVQQYIQQNIRADCSNIDKILEPPEGQDEGVWKYEHLRQFCLELNGLAVKLQSECHPDTCTQMTATEQWIFLCAAHKTPKECPAIDYTRHTLDGAACLLNSNKYFPSRVSIKESSVAKLGSVCRRIYRIFSHAYFHHRQIFDEYENETFLCHRFTKFVMKYNLMSKDNLIVPILEEEVQNSVSGESEA | failed
SVTIDHTTENAAPAQAPVSDRAWALFRALDGKGLVPDGYVEGWKKTFEEDFSPRRGAELVARAWTPRRGAELVARAWTDPEFRQLLLTDGTAAVAQYGYLGPQGEYIVAVEDTPTLKNVIVCSLCSCTAWPILGLPPTWYKSFEYRARVVREPRKVLSEMGTEIASDIEIRVYDTTAETRYMVLPQRPAGTEGWSQEQLQEIVTKDCLIGVAIPQVPTV | not failed
SYETSQHNLDAVEAVLSRLQKQTGEMAAYMVPVGYRALCVSQRESMQALRCSFVQGQSQPLLRGASSKVMLAYMPAARCEKILRYFGEDPTLDKWQSEFEKIRRHGYAVSTSEIDPGVSGISAPVMKGSKLIGAISVMAPAHRVESNKQRIILHVLQAARALPPER | not failed
TARKCLLEKVEVITGEEAESNVLQMQCKLFVFDKTSQSWVERGRGLLRLNDMASTDDGTLQSRLVMRTQGSLRLILNTKLWAQMQIDKASEKSIHITAMDTEDQGVKVFLISASSKDTGQLYAALHHRILALRSRVE | not failed
TATNHQGLPAVDSEILEMPPEKADGVVEGIDVNGPKAQLMLRYPDGKREQITLPEQAKLLALVKHVQSKGYPNERFELLTNFPRRKLSHLDYDITLQEAGLCPQETVFVQE | not failed
TDAFVFEGFLPTRGKRRLEKLANLKGEQRVVIFYEAPGRLQAALADMREVLGDRHVVVARELTKIHEEFVRGRVSFVAEHFAAVDVKGEVVILVAPAPAP | failed
TDINSLRTRLRSGEHAFADTLAFIADGYDYQPQPFRNGDVDNAAGQNEGSCKTLGLALLEGLSDEEALLAFGEHYRSVQATPEGSDHGNIRALIKHGLAGVTFEGEPLKRK | not failed
TDPDADRLGVEIRQPDGSYKNLSGNQIGAIIAKYILEAHKTAGTLPENAALAKSIVSTELVTKIAESYGATMFNVLTGFKFIAEKIQEFEEKHNHTYMFGFEESFGYLIKPFVRDKDAIQAVLLVAEIAAYYRSRGLTLADGIDEIYKEYGYFAE | failed
TDQAITFDDVLLVPSYNHHESRRVVETTSTDRLGKLTLNLPVISANMDTITESNMANFMHSKGAMGALHRFMTIEENIQEFKKCKGPVFVSVGCTENELQRAEALRDAGADFFCVDVAHAHAKYVGKTLKSLRQLLGSRCIMAGNVATYAGADYLASCGADIIKAGIGGGSVCSTRIKTGFGVPMLTCIQDCSRADRSIVADGGIKTSGDIVKALAFGADFVMIGGMLAGSAPTPGEVFQKDDGSKVKRYRGMASREAQEAFLGQMHEWKTAEGVATEVPFKENPDGIIADIIGGLRSGLTYAGADSISELQRKLNYVIVTQAGRIESLPHKLLEG | not failed
TEDSLMPEEEFLRRNKGPVSIKVQVPNMQDKTEWKLNGQGLVFTLPLTDQVSVIKVKIHEATGMPAGKQKLQYEGIFIKDSNSLAYYNMASGAVIHLALKER | not failed
TEDTVIKVSVLRGPSVIAFADWLENPPIIDNKKVQVKVVDSPDLAQALLIKQETDIAVLPMINAANLYNKGIKIKLAGCPIWGTLYLVEKTPLKEPALYVFGNGTTPDILTRYYLGRQRLDYPLNYAFNTAGEITQGILAGKVNRAVLGEPFLSIALRKDSSLRITADLNHLTDNDTLGFAQTAVVYTPTMEKYRIAFEDALRASCQKAVRYPKETIHSLEEHGIFAQGALTPKSIERCKIYYLSAIEAKDAVMGFLRLIEQYEPKAVGGRLPDAGFIPEKQ | not failed
TFDNLNSMNGKGSSTDGINYVFDSLMSSSLDEPGVMYPLLAKTATFDPEQTHFVIFELNPKARFSDGTPVTAQDVKFSFDTYQSKANPGLQMYISDLAKTEVLSKYRVKFSFKSQNNAEMPLILASLPIYSQKDWKNRDFTRVTLQPILGSGPYLIERIDPS | failed
TFSYLAETDYPVFTLGGSTADAARRLAASGCACAPVLDGERYLGMVHLSRLLEGRKGWPTVKEKLGEELLETVRSYRPGEQLFDNLISVAAAKCSVVPLADEDGRYEGVVSRKRILGFLAERI | failed
TGALMASSPQDIKFQDLVVFILEKKMGTTRRALLMELARRKGFRVENELSDSVTHIVAENNSGSDVLEWLQAQKVQVSSQPELLDVSWLIECIGAGKPVEMTGKHQL | not failed
TGELEVVQQAVKEMNDPSQPNEEGITALHNAICGANYSIVDFLITAGANVNSPDSHGWTPLHCAASCNDTVICMALVQHGAAIFATTLSDGATAFEKCDPYREGYADCATYLADVEQSMGLMNSGAVYALWDYSAEFGDELSFREGESVTVLRRDGPEETDWWWAALHGQEGYVPRNYFGLFPRVKPQRSKV | failed
TGNVCIEEIDVDGKFIRLKNTSEQDQPMGGWEMIRKIGDTSVSYKYTSRYVLKAGQTVTIWAANAGVTASPPTDLIWKNQNSWGTGEDVKVILKNSQGEEVAQRSTVFKTTIP | failed
THGVVIIDVTKNENKVIYVNRAFERITGYGEQHALGKGLLTLLGSNLEEVNHKRIELAIRESKEETIEMESIKRNGEFYWCEISVAPVKDSF | failed
